Paper PMC2968749 (Journal of immunology (Baltimore, Md. : 1950), 2009)

Target: the molecule itself
Test: nonreducing SDS-PAGE + mass spectrometry of the band

B1: native Bet v 1d in aqueous birch pollen extract (BPE) (natural protein, UniProt P43177 1-160, looked up)
chain: MGVFNYEIETTSVIPAARLFKAFILDGDNLVPKVAPQAISSVENIEGNGGPGTIKKINFPEGFPFKYVKDRVDEVDHTNFKYNYSVIEGGPVGDTLEKISNEIKIVATPDGGCVLKISNKYHTKGNHEVKAEQVKASKEMGETLLRAVESYLLAHSDAYN
stoichiometry N: 2
